{"source": "paper PMC8000282", "about": "“In Silico and In Vitro Tailoring of a Chitosan Nanoformulation of a Human Metabolic Enzyme” (Pharmaceutics, 2021)", "proteins": {"B1": {"name": "human phenylalanine hydroxylase (enzyme, UniProt P00439 1-452, looked up)", "chain": "MSTAVLENPGLGRKLSDFGQETSYIEDNCNQNGAISLIFSLKEEVGALAKVLRLFEENDVNLTHIESRPSRLKKDEYEFFTHLDKRSLPALTNIIKILRHDIGATVHELSRDKKKDTVPWFPRTIQELDRFANQILSYGAELDADHPGFKDPVYRARRKQFADIAYNYRHGQPIPRVEYMEEEKKTWGTVFKTLKSLYKTHACYEYNHIFPLLEKYCGFHEDNIPQLEDVSQFLQTCTGFRLRPVAGLLSSRDFLGGLAFRVFHCTQYIRHGSKPMYTPEPDICHELLGHVPLFSDRSFAQFSQEIGLASLGAPDEYIEKLATIYWFTVEFGLCKQGDSIKAYGAGLLSSFGELQYCLSEKPKLLPLELEKTAIQNYTVTEFQPLYYVAESFNDAKEKVRNFAATIPRPFSVRYDPYTQRIEVLDNTQQLKILADSINSEIGILCSALQKIK", "notes": "human phenylalanine hydroxylase (hPAH), expressed in E. coli as a fusion protein; a His tag is inferred from pTrcHis and the Ni resin; The tetrameric fraction from SEC was used as the fusion protein; also called hPAH; Human PAH; source: E. coli, fusion protein, purified (Ni-chelating resin, SEC)"}}, "target": "the molecule itself", "assay": "SEC; HiLoad Superdex 200 HR column, 20 mM Na-Hepes, 200 mM NaCl, pH 7.0, 0.7 mL/min, 4 °C; relative molecular mass of the oligomeric forms estimated from a calibration curve with standard proteins", "data": [{"protein": "B1", "values": [{"measurement": "stoichiometry N", "value": 4}]}]}
